Results as given in US20240261333A1, “NOVEL TARGETS FOR ENHANCING ANTI-TUMOR IMMUNITY” (THE BROAD INSTITUTE, INC., priority 2021, published 2024).

Legend:
ATP1A1 (human) = ATP1A1 (human) (UniProt P05023); assay: co-IP/MS, anti-FLAG IP of N-FLAG B3GNT2 cell lysate
CALU (human) = CALU (human) (UniProt O43852); assay: as above
CANX (human) = CANX (human) (UniProt P27824); assay: as above
CAPZA1 (human) = CAPZA1 (human) (UniProt P52907); assay: as above
CAPZB (human) = CAPZB (human) (UniProt P47756); assay: as above
CKAP4 (human) = CKAP4 (human) (UniProt Q07065); assay: as above
DNAJA1 (human) = DNAJA1 (human) (UniProt P31689); assay: as above
FAM3C (human) = FAM3C (human) (UniProt Q92520); assay: as above
IPO4 (human) = IPO4 (human) (UniProt Q8TEX9); assay: as above
LRP1 (human) = LRP1 (human) (UniProt Q07954); assay: as above
PDIA6 (human) = PDIA6 (human) (UniProt Q15084); assay: as above
RCN2 (human) = RCN2 (human) (UniProt Q14257); assay: as above
RPL23A (human) = RPL23A (human) (UniProt P62750); assay: as above
RPS7 (human) = RPS7 (human) (UniProt P62081); assay: as above
TGM3 (human) = TGM3 (human) (UniProt Q08188); assay: as above
TUBB (human) = TUBB (human) (UniProt P07437); assay: as above
UQCRC2 (human) = UQCRC2 (human) (UniProt P22695); assay: as above
ARPC1B (human) = ARPC1B (human) (UniProt O15143); assay: co-IP with IgG control, lysate of C-FLAG B3GNT2 cells, mass spectrometry
CPT1A (human) = CPT1A (human) (UniProt P50416); assay: as above
HBB (human) = HBB (human) (UniProt P68871); assay: as above
LAMC1 (human) = LAMC1 (human) (UniProt P11047); assay: as above
LUC7L3 (human) = LUC7L3 (human) (UniProt O95232); assay: as above
MMP14 (human) = MMP14 (human) (UniProt P50281); assay: as above
MMS19 (human) = MMS19 (human) (UniProt Q96T76); assay: as above
[1] = target: P0AA25.2 [thioredoxin: P0AA25]; assay: as above
PLOD1 (human) = PLOD1 (human) (UniProt Q02809); assay: as above
PSMA3 (human) = PSMA3 (human) (UniProt P25788); assay: as above
PSMB5 (human) = PSMB5 (human) (UniProt P28074); assay: as above
PURA (human) = PURA (human) (UniProt Q00577); assay: as above
RBM14 (human) = RBM14 (human) (UniProt Q96PK6); assay: as above
RPL17 (human) = RPL17 (human) (UniProt P18621); assay: as above
RPL7A (human) = RPL7A (human) (UniProt P62424); assay: as above
RPS24 (human) = RPS24 (human) (UniProt P62847); assay: as above
RUVBL2 (human) = RUVBL2 (human) (UniProt Q9Y230); assay: as above
TPM2 (human) = TPM2 (human) (UniProt P07951); assay: as above
TTC13 (human) = TTC13 (human) (UniProt Q8NBP0); assay: as above
UniProt P01837.1 = assay: as above
XPO1 (human) = XPO1 (human) (UniProt O14980); assay: as above

“N-terminal FLAG tagged B3GNT2 (from UniProt Q9NY97 1-397) (enzyme)” showed a co-IP mass spectrometry count (ATP1A1 (human)) of 11, a co-IP mass spectrometry count (CALU (human)) of 10 and a co-IP mass spectrometry count (CANX (human)) of 6. The co-IP mass spectrometry count (CAPZA1 (human)) was 2, the co-IP mass spectrometry count (CAPZB (human)) was 2 and the co-IP mass spectrometry count (CKAP4 (human)) was 2. For the same substance, the co-IP mass spectrometry count (DNAJA1 (human)) was 6, the co-IP mass spectrometry count (FAM3C (human)) was 2 and the co-IP mass spectrometry count (IPO4 (human)) was 3. For the same substance, the co-IP mass spectrometry count (LRP1 (human)) was 2, the co-IP mass spectrometry count (PDIA6 (human)) was 5 and the co-IP mass spectrometry count (RCN2 (human)) was 7. The co-IP mass spectrometry count (RPL23A (human)) was 6, the co-IP mass spectrometry count (RPS7 (human)) was 8 and the co-IP mass spectrometry count (TGM3 (human)) was 9. For the same substance, the co-IP mass spectrometry count (TUBB (human)) was 164 and the co-IP mass spectrometry count (UQCRC2 (human)) was 13.
In the case of “IgG control (Millipore Sigma 12-371) (antibody)”, the co-IP/MS count, C-term IgG (ARPC1B (human)) is reported as 2, the co-IP/MS count, C-term IgG (CPT1A (human)) is reported as 0 and the co-IP/MS count, C-term IgG (HBB (human)) is reported as 0. For the same substance, the co-IP/MS count, C-term IgG (LAMC1 (human)) was 0, the co-IP/MS count, C-term IgG (LUC7L3 (human)) was 3 and the co-IP/MS count, C-term IgG (MMP14 (human)) was 0. For the same substance, the co-IP/MS count, C-term IgG (MMS19 (human)) was 0, the co-IP/MS count, C-term IgG [1] was 8 and the co-IP/MS count, C-term IgG (PLOD1 (human)) was 0. It also gave a co-IP/MS count, C-term IgG (PSMA3 (human)) of 0, a co-IP/MS count, C-term IgG (PSMB5 (human)) of 0 and a co-IP/MS count, C-term IgG (PURA (human)) of 0. The co-IP/MS count, C-term IgG (RBM14 (human)) was 0, the co-IP/MS count, C-term IgG (RPL17 (human)) was 2 and the co-IP/MS count, C-term IgG (RPL7A (human)) was 5. The co-IP/MS count, C-term IgG (RPS24 (human)) was 2, the co-IP/MS count, C-term IgG (RUVBL2 (human)) was 0 and the co-IP/MS count, C-term IgG (TPM2 (human)) was 0. The co-IP/MS count, C-term IgG (TTC13 (human)) was 0, the co-IP/MS count, C-term IgG (UniProt P01837.1) was 108 and the co-IP/MS count, C-term IgG (XPO1 (human)) was 0.
